In article PMC7214386, “Plasmonic biosensors fabricated by galvanic displacement reactions for monitoring biomolecular interactions in real time” (Analytical and Bioanalytical Chemistry, 2020):
Blank lines part the entries; values can stand above or below the molecule they belong to.

Assays:
[1] = molecular target: Protein A (Staphylococcus aureus) (UniProt P38507); test: LSPR (localized surface plasmon resonance, reflectance spectroscopy); PrA physically adsorbed on the nanostructured gold layer; analyte flown over in PBS pH 7.4, 0.57 ml/min; equilibrium shifts of three sensors fitted to a Langmuir isotherm
[2] = molecular target: Protein A (Staphylococcus aureus) (UniProt P38507); test: LSPR (localized surface plasmon resonance, reflectance spectroscopy); PrA covalently coupled to the nanostructured gold layer via cysteamine/glutardialdehyde; analyte flown over in PBS pH 7.4, 0.57 ml/min; equilibrium shifts of three sensors fitted to a Langmuir isotherm
asialofetuin = molecular target: T1, asialofetuin (UniProt P12763 19-359, glycoprotein presenting terminal galactose residues); test: LSPR (localized surface plasmon resonance, reflectance spectroscopy); ASF physically adsorbed on the nanostructured gold layer; analyte in lectin buffer (10 mM HEPES, 150 mM NaCl, 0.1 mM CaCl2, pH 7.5); equilibrium shifts of three sensors fitted to a Langmuir isotherm; conditions: both partners purified
T1 construct: asialofetuin (desialylated fetuin), printed mass 48 kDa; Physically adsorbed on the gold sensor; also called ASF; source: bought: Sigma
T1 sequence (looked up): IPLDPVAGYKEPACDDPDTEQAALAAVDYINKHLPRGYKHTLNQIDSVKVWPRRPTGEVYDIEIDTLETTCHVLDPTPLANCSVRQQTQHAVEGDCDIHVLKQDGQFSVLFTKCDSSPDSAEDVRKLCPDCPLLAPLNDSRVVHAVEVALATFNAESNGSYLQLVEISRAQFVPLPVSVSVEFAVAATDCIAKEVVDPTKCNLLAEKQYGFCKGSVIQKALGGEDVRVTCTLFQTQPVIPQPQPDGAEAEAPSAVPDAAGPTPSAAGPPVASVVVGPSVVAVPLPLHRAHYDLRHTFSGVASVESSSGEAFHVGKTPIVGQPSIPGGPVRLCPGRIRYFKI

Molecule: immunoglobulin G (IgG, 150 kDa) from rabbit (antibody)
- Kd [1]: 140 nM
- Kd [2]: 150 nM

- Kd (asialofetuin): 490 nM
B1: Erythrina cristagalli lectin (natural protein, UniProt P83410 1-239, looked up)
chain: VETISFSFSEFEPGNDNLTLQGAALITQSGVLQLTKINQNGMPAWDSTGRTLYTKPVHMWDSTTGTVASFETRFSFSIEQPYTRPLPADGLVFFMGPTKSKPAQGYGYLGVFNNSKQDNSYQTLAVEFDTFSNPWDPPQVPHIGIDVNSIRSIKTQPFQLDNGQVANVVIKYDAPSKILHVVLVYPSSGAIYTIAEIVDVKQVLPDWVDVGLSGATGAQRDAAETHDVYSWSFQASLPE
notes: lectin of the plant Erythrina cristagalli; printed mass 54 kDa; The printed 54 kDa probably means a dimer of the lectin chain; also called ECL; source: bought: Vector Laboratories via BIOZOL Diagnostica
